Reference: patent publication US20250320268A1 (SHATTUCK LABS, published 2025)
Several values for one entry are separate records, joined by “and”; a condition that tells them apart may be missing. Equal values may be shown once. Values belong to the molecule of their own block, whether it stands above or below them.

Legend:
[1] = target: recombinant hCD47-Fc (human) (UniProt Q08722); experiment: SIRPα blocking ELISA: plate-bound hCD47, labelled competitor recombinant hSIRPα
[2] = target: recombinant human FcγR1A, histidine-tagged (human) (UniProt P12314); experiment: SPR (ProteOn XPR36); His-tagged FcγR1A immobilized, binder as analyte
Sequence of recombinant human FcγR1A, histidine-tagged (human) (P12314 16-288): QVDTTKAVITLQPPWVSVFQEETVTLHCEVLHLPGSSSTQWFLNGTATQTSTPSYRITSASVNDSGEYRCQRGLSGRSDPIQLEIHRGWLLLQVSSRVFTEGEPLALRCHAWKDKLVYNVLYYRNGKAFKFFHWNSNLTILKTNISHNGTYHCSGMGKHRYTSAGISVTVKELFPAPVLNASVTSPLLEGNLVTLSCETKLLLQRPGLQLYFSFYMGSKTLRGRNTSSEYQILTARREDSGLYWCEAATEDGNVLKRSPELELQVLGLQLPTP

[3] = target: T1, recombinant mouse CD47 (mouse, UniProt Q61735 19-140, limits assumed); experiment: dual ELISA: coat mCD47-Fc, detect mCD40-His, tertiary anti-his-HRP
T1 construct: also called mCD47-Fc
T1 sequence (looked up): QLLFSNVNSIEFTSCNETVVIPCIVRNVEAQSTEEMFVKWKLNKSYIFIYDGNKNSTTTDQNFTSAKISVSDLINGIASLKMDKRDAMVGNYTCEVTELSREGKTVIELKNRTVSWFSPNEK
Procedure: Plates were washed with TBS-T (Tris-buffered saline containing 0.1% Tween 20) and then detection antibody was added for 1 hour at room temperature in the dark. Detection antibodies included anti-hIgG-HRP, anti-mIgG-HRP, anti-hCD40L, anti-mCD40L, and then anti-Goat-HRP (all antibodies were obtained from Jackson ImmunoResearch Laboratories or R&D Systems). Plates were washed again and SureBlue TMB Microwell Peroxidase Substrate (KPL; purchased from VWR, catalog no. 95059-282) was added to each well and allowed to incubate at room temperature in the dark. To stop the reaction, 1N sulfuric acid was added to each well and absorbance at 450 nm was read immediately on a BioTek plate reader. Samples were run at a minimum in triplicate and at multiple dilutions.

[4] = target: T2, recombinant human CD40, histidine-tagged (human, UniProt P25942 21-193); experiment: SPR (ProteOn XPR36); His-tagged CD40 immobilized, binder as analyte
T2 construct: Immobilized ligand in SPR and coating reagent in the single-sided ELISA; also called CD40 (AcroBiosystems); hCD40-His; not shown: histidine tag
T2 sequence (P25942 21-193 limits assumed): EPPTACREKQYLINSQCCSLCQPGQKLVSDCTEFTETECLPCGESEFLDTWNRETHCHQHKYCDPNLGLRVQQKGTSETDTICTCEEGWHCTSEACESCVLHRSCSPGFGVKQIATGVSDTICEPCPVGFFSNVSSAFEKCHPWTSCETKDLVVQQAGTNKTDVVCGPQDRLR

Sequence of recombinant hCD47-Fc (human) (Q08722 19-139 limits assumed): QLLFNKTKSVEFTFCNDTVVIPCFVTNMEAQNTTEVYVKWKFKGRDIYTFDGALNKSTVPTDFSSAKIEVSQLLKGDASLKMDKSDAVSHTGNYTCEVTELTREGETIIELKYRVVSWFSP

B1: murine SIRPα-Fc-CD40L chimeric protein surrogate (Fc fusion)
chain: KELKVTQPEKSVSVAAGDSTVLNCTLTSLLPVGPIRWYRGVGPSRLLIYSFAGEYVPRIRNVSDTTKRNNMDFSIRISNVTPADAGIYYCVKFQKGSSEPDTEIQSGGGTEVYVLAKPSPPEVSGPADRGIPDQKVNFTCKSHGFSPRNITLKWFKDGQELHPLETTVNPSGKNVSYNISSTVRVVLNSMDVNSKVICEVAHITLDRSPLRGIANLSNFIRVSPTVKVTQQSPTSMNQVNLTCRAERFYPEDLQLIWLENGNVSRNDTPKNLTKNTDGTYNYTSLFLVNSSAHREDVVFTCQVKHDQQPAITRNHTVLGFAHSSDQGSMQTFPDNNATHNWNVPRDCGCKPCICTVPEVSSVFIFPPKPKDVLTITLTPKVTCVVVDISKDDPEVQFSWFVDDVEVHTAQTQPREEQFNSTFRSVSELPIMHQDWLNGKEFKCRVNSAAFPAPIEKTISKTKGRPKAPQVYTIPPPKEQMAKDKVSLTCMITDFFPEDITVEWQWNGQPAENYKNTQPIMNTNGSYFVYSKLNVQKSNWEAGNTFTCSVLHEGLHNHHTEKSLSHSPGKHRRLDKVEEEVNLHEDFVFIKKLKRCNKGEGSLSLLNCEEMRRQFEDLVKDITLNKEEKKENSFEMQRGDEDPQIAAHVVSEANSNAASVLQWAKKGYYTMKSNLVMLENGKQLTVKREGLYYVYTQVTFCSNREPSSQRPFIVGLWLKPSSGSERILLKAANTHSSSQLCEQQSVHLGGVFELQAGASVFVNVTEASQVIHRVGFSSFGLLKL
notes: also called mSIRPα-Fc-CD40L; mouse SIRPα-Fc-CD40L
EC50 [3]: 7.37 nM and 8.73 nM

B2: recombinant hCD40L-Fc (positive control analyte) (Fc fusion, human, UniProt P29965 116-261, looked up)
chain: GDQNPQIAAHVISEASSKTTSVLQWAEKGYYTMSNNLVTLENGKQLTVKRQGLYYIYAQVTFCSNREASSQAPFIASLCLKSPGRFERILLRAANTHSSAKPCGQQSIHLGGVFELQPGASVFVNVTDPSQVSHGTGFTSFGLLKL
notes: also called hCD40L-Fc (AcroBiosystems); not shown: Fc part of a bought fusion
Kd [4]: 1.15 nM | koff [4]: 0.000351 s⁻¹ | kon [4]: 304000 M⁻¹ s⁻¹

The next lines start with the values.

IC50 (read off the curve) [1]: 10 nmol/L
Molecule: anti-human CD47 blocking antibody, clone CC2C6 (BioLegend)

Kd [2]: 8.42 nM | koff [2]: 0.000156 s⁻¹ | kon [2]: 18400 M⁻¹ s⁻¹
Molecule: human IgG1 (positive control for Fcγ receptors and FcRn) (antibody)
